According to patent publication US20220025021A1 (BETH ISRAEL DEACONESS MEDICAL CENTER, published 2022):
Positions count from the first letter of the chain named.

B1: MS-110 (antibody)
VH: not shown
VL: DFVLTQSPLSLSVTPGEPASISCKSSHSLIHGDRNNYLAWYVQKPGRSPQLLIYLASSRASGVPDRFSGSGSDKDFTLKISRVEAEDVGTYYCMQGRESPWTFGQGTKVDIKRTVAAPSVFIFPPSDEQLKSGTASVVCLLNNFYPREAKVQWKVDNALQSGNSQESVTEQDSKDSTYSLSSTLTLSKADYEKHKVYACEVTHQGLSSPVTKSFNRGEC
B2: MS-104 (antibody)
VH: not shown
VL: B1 VL with F2I, P18S, D73G, A85T
B3: MS-105 (antibody)
VH: not shown
VL: B1 VL with F2I, P18S
B4: MS-111 (antibody)
VH: not shown
VL: B1 VL with P18S, D73G
B5: MS-109 (antibody)
VH: not shown
VL: B1 VL with D73G, A85T
B6: MS-108 (antibody)
VH: not shown
VL: B1 VL with F2I, L9H, P18S, D73G
B7: MS-107 (antibody)
VH: not shown
VL: B1 VL with F2I, L9H
B8: MS-106 (antibody)
VH: not shown
VL: B1 VL with F2I, L9H, D73G, A85T
B9: MS-93 (antibody)
VH: not shown
VL: B1 VL with F2I, P18S, A85T
B10: MS-97 (antibody)
VH: not shown
VL: B1 VL with A85T
B11: MS-94 (antibody)
VH: not shown
VL: B1 VL with F2I, L9H, A85T
B12: MS-96 (antibody)
VH: not shown
VL: B1 VL with F2I, L9H, P18S
B13: MS-98 (antibody)
VH: not shown
VL: B1 VL with P18S, D73G, A85T
B14: MS-95 (antibody)
VH: not shown
VL: B1 VL with F2I, L9H, P18S, D73G, A85T
B15: MS-100 (antibody)
VH: not shown
VL: B1 VL with L9H, D73G, A85T
B16: MS-99 (antibody)
VH: not shown
VL: B1 VL with P18S

Target: HIV-1 envelope glycoprotein of pseudovirus SC422661.8 (HIV-1)
Assay: cell-based or functional assay

| Binder | IC50 (neutralization in TZM.bl cells) | IC80 (neutralization in TZM.bl cells) |
| --- | --- | --- |
| B1 | 0.243 µg/mL | 1.19 µg/mL |
| B2 | 0.277 µg/mL | 1.52 µg/mL |
| B3 | 0.44 µg/mL | 3.51 µg/mL |
| B4 | 0.285 µg/mL | 1.03 µg/mL |
| B5 | 0.233 µg/mL | 1.75 µg/mL |
| B6 | 0.148 µg/mL | 1.25 µg/mL |
| B7 | 0.362 µg/mL | 2.07 µg/mL |
| B8 | 0.201 µg/mL | 1.07 µg/mL |

Target: HIV-1 envelope glycoprotein of pseudovirus RHPA4259.7 (HIV-1)
Assay: cell-based or functional assay

| Binder | IC50 (neutralization in TZM.bl cells) | IC80 (neutralization in TZM.bl cells) |
| --- | --- | --- |
| B1 | 0.18 µg/mL | 0.817 µg/mL |
| B2 | 0.227 µg/mL | 1.02 µg/mL |
| B3 | 0.27 µg/mL | 1.25 µg/mL |
| B4 | 0.178 µg/mL | 0.802 µg/mL |
| B5 | 0.182 µg/mL | 0.794 µg/mL |
| B6 | 0.178 µg/mL | 1.1 µg/mL |
| B7 | 0.219 µg/mL | 0.949 µg/mL |
| B8 | 0.143 µg/mL | 0.72 µg/mL |

Target: HIV-1 envelope glycoprotein of pseudovirus DU172.17 (HIV-1)
Assay: cell-based or functional assay

| Binder | IC50 (neutralization in TZM.bl cells) | IC80 (neutralization in TZM.bl cells) |
| --- | --- | --- |
| B1 | 0.847 µg/mL | 7.3 µg/mL |
| B2 | 2.58 µg/mL | 9.41 µg/mL |
| B3 | 3.06 µg/mL | 11.5 µg/mL |
| B4 | 1.76 µg/mL | 6.27 µg/mL |
| B5 | 1.14 µg/mL | 8.76 µg/mL |
| B6 | 1.71 µg/mL | 13.6 µg/mL |
| B7 | 2.58 µg/mL | 13.9 µg/mL |
| B8 | 1.49 µg/mL | 8.04 µg/mL |

Target: HIV-1 envelope glycoprotein of pseudovirus BB1012-11.TC21 (HIV-1)
Assay: cell-based or functional assay

| Binder | IC50 (neutralization in TZM.bl cells) | IC80 (neutralization in TZM.bl cells) |
| --- | --- | --- |
| B1 | 0.033 µg/mL | 0.104 µg/mL |
| B2 | 0.032 µg/mL | 0.137 µg/mL |
| B3 | 0.038 µg/mL | 0.124 µg/mL |
| B4 | 0.029 µg/mL | 0.093 µg/mL |
| B5 | 0.021 µg/mL | 0.087 µg/mL |
| B6 | 0.027 µg/mL | 0.11 µg/mL |
| B7 | 0.035 µg/mL | 0.111 µg/mL |
| B8 | 0.031 µg/mL | 0.132 µg/mL |

Target: HIV-1 envelope glycoprotein of pseudovirus CNE52 (HIV-1)
Assay: cell-based or functional assay

| Binder | IC50 (neutralization in TZM.bl cells) | IC80 (neutralization in TZM.bl cells) |
| --- | --- | --- |
| B1 | 0.21 µg/mL | 1.31 µg/mL |
| B2 | 0.509 µg/mL | 6.48 µg/mL |
| B3 | 0.441 µg/mL | 5.04 µg/mL |
| B4 | 0.22 µg/mL | 1.31 µg/mL |
| B5 | 0.206 µg/mL | 1.95 µg/mL |
| B6 | 0.265 µg/mL | 3.5 µg/mL |
| B7 | 0.389 µg/mL | 5.29 µg/mL |
| B8 | 0.42 µg/mL | 4.31 µg/mL |

Target: HIV-1 envelope glycoprotein of pseudovirus 0260.v5.c36 (HIV-1)
Assay: cell-based or functional assay

| Binder | IC50 (neutralization in TZM.bl cells) | IC80 (neutralization in TZM.bl cells) |
| --- | --- | --- |
| B1 | 0.026 µg/mL | 0.088 µg/mL |
| B2 | 0.024 µg/mL | 0.084 µg/mL |
| B3 | 0.032 µg/mL | 0.11 µg/mL |
| B4 | 0.024 µg/mL | 0.066 µg/mL |
| B5 | 0.027 µg/mL | 0.089 µg/mL |
| B6 | 0.028 µg/mL | 0.088 µg/mL |
| B7 | 0.034 µg/mL | 0.109 µg/mL |
| B8 | 0.018 µg/mL | 0.066 µg/mL |

Target: HIV-1 pseudovirus 263-8 (envelope glycoprotein) (HIV-1)
Assay: cell-based or functional assay

| Binder | neutralization IC50 | neutralization IC80 |
| --- | --- | --- |
| B9 | 0.018 µg/mL | 0.065 µg/mL |
| B10 | 0.015 µg/mL | 0.052 µg/mL |
| B11 | 0.014 µg/mL | 0.047 µg/mL |
| B12 | 0.018 µg/mL | 0.064 µg/mL |
| B13 | 0.009 µg/mL | 0.033 µg/mL |
| B14 | 0.013 µg/mL | 0.047 µg/mL |
| B15 | 0.006 µg/mL | 0.026 µg/mL |
| B16 | 0.011 µg/mL | 0.041 µg/mL |

Target: HIV-1 pseudovirus SC05.8C11.2344 (envelope glycoprotein) (HIV-1)
Assay: cell-based or functional assay

| Binder | neutralization IC50 | neutralization IC80 |
| --- | --- | --- |
| B9 | 0.749 µg/mL | 2.48 µg/mL |
| B10 | 1.02 µg/mL | 2.63 µg/mL |
| B11 | 0.739 µg/mL | 2.5 µg/mL |
| B12 | 1.07 µg/mL | 3.4 µg/mL |
| B13 | 0.59 µg/mL | 1.9 µg/mL |
| B14 | 0.702 µg/mL | 1.79 µg/mL |
| B15 | 0.531 µg/mL | 1.77 µg/mL |
| B16 | 0.759 µg/mL | 2.49 µg/mL |

Target: HIV-1 pseudovirus X1193_c1 (envelope glycoprotein) (HIV-1)
Assay: cell-based or functional assay

| Binder | neutralization IC50 | neutralization IC80 |
| --- | --- | --- |
| B9 | 0.088 µg/mL | 0.543 µg/mL |
| B10 | 0.101 µg/mL | 0.588 µg/mL |
| B11 | 0.123 µg/mL | 0.548 µg/mL |
| B12 | 0.113 µg/mL | 0.677 µg/mL |
| B13 | 0.088 µg/mL | 0.369 µg/mL |
| B14 | 0.111 µg/mL | 0.467 µg/mL |
| B15 | 0.058 µg/mL | 0.358 µg/mL |
| B16 | 0.13 µg/mL | 0.57 µg/mL |

Target: HIV-1 pseudovirus Ce1176_A3 (envelope glycoprotein) (HIV-1)
Assay: cell-based or functional assay

| Binder | neutralization IC50 | neutralization IC80 |
| --- | --- | --- |
| B9 | 0.239 µg/mL | 5.33 µg/mL |
| B10 | 0.125 µg/mL | 1.59 µg/mL |
| B11 | 0.371 µg/mL | 11.7 µg/mL |
| B12 | 0.248 µg/mL | 5.85 µg/mL |
| B13 | 0.102 µg/mL | 2.36 µg/mL |
| B14 | 0.203 µg/mL | 5.38 µg/mL |
| B15 | 0.048 µg/mL | 0.905 µg/mL |
| B16 | 0.074 µg/mL | 1.25 µg/mL |

Target: HIV-1 pseudovirus AC10.0.29 (envelope glycoprotein) (HIV-1)
Assay: cell-based or functional assay

| Binder | neutralization IC50 | neutralization IC80 |
| --- | --- | --- |
| B9 | 0.058 µg/mL | 0.301 µg/mL |
| B10 | 0.057 µg/mL | 0.282 µg/mL |
| B11 | 0.079 µg/mL | 0.299 µg/mL |
| B12 | 0.064 µg/mL | 0.253 µg/mL |
| B13 | 0.067 µg/mL | 0.245 µg/mL |
| B14 | 0.076 µg/mL | 0.27 µg/mL |
| B15 | 0.042 µg/mL | 0.211 µg/mL |
| B16 | 0.072 µg/mL | 0.328 µg/mL |

Target: HIV-1 pseudovirus 6952.v1.c20 (envelope glycoprotein) (HIV-1)
Assay: cell-based or functional assay

| Binder | neutralization IC50 | neutralization IC80 |
| --- | --- | --- |
| B9 | 0.259 µg/mL | 4.31 µg/mL |
| B10 | 0.147 µg/mL | 0.917 µg/mL |
| B11 | 0.238 µg/mL | 3.67 µg/mL |
| B12 | 0.558 µg/mL | 8.56 µg/mL |
| B13 | 0.109 µg/mL | 1.6 µg/mL |
| B14 | 0.229 µg/mL | 6.26 µg/mL |
| B15 | 0.182 µg/mL | 1.68 µg/mL |
| B16 | 0.217 µg/mL | 1.99 µg/mL |
